Blank lines part the entries; values can stand above or below the binder they belong to.
Tests used:
Abeta(12-42) globulomer [1] = biological target: T1, Abeta(12-42) globulomer (human); test: dot blot, antigen dilution series on nitrocellulose, antibody 0.2 µg/ml, densitometry
T1 construct: Oligomer
T1 peptide: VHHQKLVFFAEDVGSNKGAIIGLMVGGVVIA
Method: (§1) The dot blot was developed with 10 ml BM Blue POD Substrate for 10 min. The development was stopped by intense washing of the dot blot with H₂O. Quantitative evaluation was done based on a densitometric analysis (GS800 densitometer (BioRad) and software package Quantity one, Version 4.5.0 (Bio-Rad)) of the dot intensity. […] This threshold value was determined for every dot blot independently. The calculated value indicates the relation between recognition of Aβ(20-42) globulomer and the respective Aβ form for the given antibody.
(§2) The individual Aβ forms were applied in serial dilutions and incubated with the respective antibodies for immune reaction (1=Aβ(1-42) monomer, 0.1% NH₄OH; 2=Aβ(1-40) monomer, 0.1% NH₄OH; 3=Aβ(1-42) monomer, 0.1% NaOH; 4=Aβ(1-40) monomer, 0.1% NaOH; 5=Aβ(1-42) globulomer; 6=Aβ(12-42) globulomer; 7=Aβ(20-42) globulomer; 8=Aβ(1-42) fibril preparation; 9=sAPPα (Sigma); (first dot: 1 pmol)).

[2] = biological target: T2, sAPPalpha (Sigma cat. no. S9564) (UniProt P05067-4 18-612, limits assumed); test: dot blot, antigen dilution series on nitrocellulose (first dot 1 pmol), antibody 0.2 µg/ml, densitometry
T2 construct: Bought protein; also called sAPPα; soluble Abeta precursor
T2 sequence (P05067 other isoform, or with tags, fused parts or gaps limits assumed): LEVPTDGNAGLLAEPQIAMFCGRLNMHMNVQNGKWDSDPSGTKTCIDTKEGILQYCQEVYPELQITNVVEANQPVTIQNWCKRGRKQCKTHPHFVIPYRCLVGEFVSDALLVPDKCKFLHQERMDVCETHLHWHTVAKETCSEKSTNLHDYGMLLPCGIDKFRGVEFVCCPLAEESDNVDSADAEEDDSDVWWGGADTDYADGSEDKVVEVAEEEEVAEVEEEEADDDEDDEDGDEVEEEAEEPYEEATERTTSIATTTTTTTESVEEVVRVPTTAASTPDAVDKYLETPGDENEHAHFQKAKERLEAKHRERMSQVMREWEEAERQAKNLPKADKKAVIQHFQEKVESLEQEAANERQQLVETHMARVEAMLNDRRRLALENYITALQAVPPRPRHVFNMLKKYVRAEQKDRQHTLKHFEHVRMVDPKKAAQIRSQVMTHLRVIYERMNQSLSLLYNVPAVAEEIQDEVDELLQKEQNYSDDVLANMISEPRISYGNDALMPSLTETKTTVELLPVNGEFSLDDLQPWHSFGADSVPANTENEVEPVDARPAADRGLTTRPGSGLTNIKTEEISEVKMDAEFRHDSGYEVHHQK

Abeta(20-42) globulomer = biological target: T3, Abeta(20-42) globulomer (human); test: dot blot, antigen dilution series on nitrocellulose, antibody 0.2 µg/ml, densitometry; reference antigen
T3 construct: Oligomer; also called amyloid-beta (20-42) globulomer
T3 peptide: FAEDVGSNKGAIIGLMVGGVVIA
Method: as §1, §2

[3] = biological target: T4, Abeta(1-40) monomer in 0.1% NaOH (human); test: dot blot, antigen dilution series on nitrocellulose, antibody 0.2 µg/ml, densitometry
T4 construct: also called Abeta(1-40) monomer, 0.1% NaOH
T4 sequence (peptide, as listed by the source): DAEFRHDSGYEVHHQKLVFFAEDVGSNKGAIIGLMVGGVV
Method: as §1, §2

Abeta(1-42) globulomer [4] = biological target: T5, Abeta(1-42) globulomer (human, UniProt P05067 672-713); test: as above
T5 construct: also called 38/48-kDa Abeta(1-42) globulomer
Method: as §1, §2

[5] = biological target: T6, Abeta(1-42) fibril preparation (human, UniProt P05067 672-713); test: as above
T6 construct: also called Abeta(1-42) fibrils
Method: as §1, §2

[6] = biological target: T7, Abeta(1-42) monomer in 0.1% NH4OH (human); test: as above
T7 construct: also called Abeta(1-42) monomer, 0.1% NH4OH
Method: as §1, §2

[7] = biological target: T8, Abeta(1-40) monomer in 0.1% NH4OH (human); test: as above
T8 construct: also called Abeta(1-40) monomer, 0.1% NH4OH
T8 sequence (peptide, as listed by the source): as above
Method: as §1, §2

[8] = biological target: T9, Abeta(1-42) monomer in 0.1% NaOH (human); test: as above
T9 construct: also called Abeta(1-42) monomer, 0.1% NaOH
Method: as §1, §2

[9] = biological target: T4, Abeta(1-40) monomer in 0.1% NaOH; test: dot blot: antigen dilution series dotted on nitrocellulose, anti-mouse-IgG-POD detection
Method: (§3) In order to characterize the selectivity of monoclonal anti Aβ(20-42) globulomer antibodies, they were tested for binding to different Aβ-forms. To this end, serial dilutions of the individual Aβ(1-42) forms ranging from 100 pmol/μl to 0.00001 pmol/μl in PBS supplemented with 0.2 mg/ml BSA were prepared. 1 μl of each dilution was blotted onto a nitrocellulose membrane. Detection was performed by incubating with the corresponding antibody (0.2 μg/ml) followed by immunostaining using Peroxidase conjugated anti-mouse-IgG and the staining reagent BM Blue POD Substrate (Roche).
as §2

Abeta(1-42) globulomer [10] = biological target: T5, Abeta(1-42) globulomer; test: as above
Method: as §3, §2

Abeta(12-42) globulomer [11] = biological target: T1, Abeta(12-42) globulomer; test: as above
Method: as §3, §2

[12] = biological target: T6, Abeta(1-42) fibril preparation; test: as above
Method: as §3, §2

[13] = biological target: T2, sAPPalpha (Sigma cat. no. S9564); test: as above
Method: as §3, §2

[14] = biological target: T7, Abeta(1-42) monomer in 0.1% NH4OH; test: as above
Method: as §3, §2

[15] = biological target: T8, Abeta(1-40) monomer in 0.1% NH4OH; test: as above
Method: as §3, §2

[16] = biological target: T9, Abeta(1-42) monomer in 0.1% NaOH; test: as above
Method: as §3, §2

dot blot ratio (recognition of Abeta(20-42) globulomer relative to this Abeta form) (Abeta(12-42) globulomer [1]): 6
dot blot ratio (recognition of Abeta(20-42) globulomer relative to this Abeta form) [2]: 0.2
dot blot ratio (recognition of Abeta(20-42) globulomer relative to this Abeta form) (Abeta(20-42) globulomer): 1
B1: Anti-Abeta monoclonal antibody clone 6E10 (Covance cat. no. SIG-39320) (antibody, V domains shown)
VH: EVQLQQSGAELVKPGASVKLCTASGFNIKDTYIHWVKQRPEQGLEWIGRFDPVNVNTRYDSRFRGKATITSDASSNTAYLHLNSLTSEDTAVYYCSRSYYNGRRRFTYWGQGTLVTVSA
VL: DIVMTQSPSSLTVTAGEKVALTCKASQSLLSSGNQKNYLTWYQQKPGQPPKLLIYWASIRESGVPDRFTGSGSGTFFTLTISSVQAEDLAVYYCQNDYNYPFTFGSGTKLEIK

dot blot ratio (recognition of Abeta(20-42) globulomer relative to this Abeta form) [3]: 110000
dot blot ratio (recognition of Abeta(20-42) globulomer relative to this Abeta form) (Abeta(1-42) globulomer [4]): 30000
dot blot ratio (recognition of Abeta(20-42) globulomer relative to this Abeta form) (Abeta(12-42) globulomer [1]): 60000
dot blot ratio (recognition of Abeta(20-42) globulomer relative to this Abeta form) [5]: 32600
dot blot ratio (recognition of Abeta(20-42) globulomer relative to this Abeta form) [6]: 36000
dot blot ratio (recognition of Abeta(20-42) globulomer relative to this Abeta form) [7]: 27300
dot blot ratio (recognition of Abeta(20-42) globulomer relative to this Abeta form) [8]: 39500
binding result [9]: no binding
binding result (Abeta(1-42) globulomer [10]): no binding
binding result (Abeta(12-42) globulomer [11]): no binding
binding result [12]: no binding
binding result [13]: no binding
binding result [14]: no binding
binding result [15]: no binding
binding result [16]: no binding
dot blot ratio (recognition of Abeta(20-42) globulomer relative to this Abeta form) (Abeta(20-42) globulomer): 1
B2: murine monoclonal antibody m4C9 (antibody, V domains shown)
VH: QVQLQQPGAELVKPGASVKLSCKAPGYTFTSYWMHWVKQRPGQGLEWIGRIDPKSGDTKYTEKFKSKATLTVDKPSSTAYMQLSSLTSEDSAVYYCTTMSKLSGTHAWFAYWGQGTLVTVSA
VL: DIKMTQSPSSMYASLGERVTITCKASQDINSYLTWFQQKPGKSPKTLIYRANRLVDGVPSRFSGSGSGQDYSLTISSLEYEDMGIYYCLQYDEFPLTFGAGTKLELK
notes: Murine monoclonal antibody from hybridoma after immunization of mice with Abeta(20-42) globulomer; also called mAb m4C9; mAb 4C9

binding result [9]: no binding
binding result (Abeta(1-42) globulomer [10]): no binding
binding result (Abeta(12-42) globulomer [11]): no binding
binding result [12]: no binding
binding result [13]: no binding
binding result [14]: no binding
binding result [15]: no binding
binding result [16]: no binding
B3: murine monoclonal antibody m10B3 (antibody, V domains shown)
VH: EVKLVESGGGLVQPGGSRKLSCAASGFTFSDYEMVWVRQAPGEGLEWVAYISSGSRTIHYADTVKGRFTISRDNPKNTLFLQMSSLRSEDTAMYYCARTLLRLHFDYWGQGTILTVSS
VL: not shown
notes: Murine monoclonal antibody from hybridoma after immunization of mice with Abeta(20-42) globulomer; also called mAb m10B3; mAb 10B3
